Results: patent US20230302123A1

Biological target: ubiquitin-specific protease 7 (USP7/HAUSP), endogenous in human H1299 and HCT116 cells (human) (UniProt Q93009)
Assay: cell-based or functional assay

UniProt Q93009, sequence (Q93009 whole entry): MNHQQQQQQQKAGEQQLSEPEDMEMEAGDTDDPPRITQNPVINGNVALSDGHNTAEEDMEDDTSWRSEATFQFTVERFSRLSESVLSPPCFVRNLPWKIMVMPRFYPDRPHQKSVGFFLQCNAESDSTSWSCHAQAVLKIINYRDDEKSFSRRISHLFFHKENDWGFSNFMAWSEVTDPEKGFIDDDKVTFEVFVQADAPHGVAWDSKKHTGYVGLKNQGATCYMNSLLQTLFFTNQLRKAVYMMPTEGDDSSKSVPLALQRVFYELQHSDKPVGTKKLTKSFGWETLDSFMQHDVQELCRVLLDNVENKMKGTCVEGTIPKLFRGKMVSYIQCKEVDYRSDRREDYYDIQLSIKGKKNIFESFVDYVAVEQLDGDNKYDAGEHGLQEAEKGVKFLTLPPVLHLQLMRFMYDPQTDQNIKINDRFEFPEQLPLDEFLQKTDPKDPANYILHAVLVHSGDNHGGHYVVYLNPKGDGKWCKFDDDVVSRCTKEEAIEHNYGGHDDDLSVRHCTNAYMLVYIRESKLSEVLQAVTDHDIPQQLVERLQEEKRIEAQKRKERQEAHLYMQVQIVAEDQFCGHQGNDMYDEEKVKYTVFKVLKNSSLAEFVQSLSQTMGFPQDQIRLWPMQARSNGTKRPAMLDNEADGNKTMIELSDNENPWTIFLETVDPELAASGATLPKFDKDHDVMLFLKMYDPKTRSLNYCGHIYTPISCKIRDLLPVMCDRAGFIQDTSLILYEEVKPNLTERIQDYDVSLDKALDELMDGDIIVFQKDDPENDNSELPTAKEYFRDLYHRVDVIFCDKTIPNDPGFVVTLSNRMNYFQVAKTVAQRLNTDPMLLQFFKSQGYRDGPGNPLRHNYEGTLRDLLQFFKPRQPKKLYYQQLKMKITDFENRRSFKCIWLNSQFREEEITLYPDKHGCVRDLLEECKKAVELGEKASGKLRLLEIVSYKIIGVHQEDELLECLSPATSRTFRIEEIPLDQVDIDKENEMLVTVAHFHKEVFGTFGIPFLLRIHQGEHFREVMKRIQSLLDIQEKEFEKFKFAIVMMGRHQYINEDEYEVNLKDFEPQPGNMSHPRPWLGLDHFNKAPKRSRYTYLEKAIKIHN

DBP-S76A of the virus mutant UBM2 (H5pm4250) (from UniProt P03265 1-529)
USP7 diffusely distributed within the nucleus, 48 h p.i. (immunofluorescence) (% of the UBM2-infected cells): 45
partial relocalization of USP7 into ring-like or rosette-shaped replication centers, 48 h p.i. (immunofluorescence) (% of the UBM2-infected cells): 55
relocalization of USP7 into viral replication centers (immunofluorescence) (% of the infected cells): 100
